Source: US20210206865A1 (Regeneron, published 2021)

T1: human BCMA on the surface of cell lines (NCI-H929, MM.1S, OPM-2, RPMI-8226, Daudi, Raji, MOLP-8, U266) (human, UniProt Q02223 1-184)
T1 construct: Endogenous BCMA of human myeloma and lymphoma cell lines; also called TNFRSF17; CD269
T1 sequence: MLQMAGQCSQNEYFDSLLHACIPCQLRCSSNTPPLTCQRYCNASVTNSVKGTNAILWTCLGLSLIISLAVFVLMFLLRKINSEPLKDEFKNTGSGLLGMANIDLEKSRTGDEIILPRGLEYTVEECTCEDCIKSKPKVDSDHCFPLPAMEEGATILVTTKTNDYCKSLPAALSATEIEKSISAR


Tests used:
[1] = target: T2, cynomolgus CD3 on cells (mfCD3 engineered Jurkat cells, primary cynomolgus CD8+ T cells) (cynomolgus, UniProt Q95LI5 22-198; Q95LI8 22-171); test: flow cytometry, mfCD3 engineered Jurkat cells, median EC50, n=2
T2 construct: whole, on cells; The engineered Jurkat line expresses cynomolgus CD3 epsilon and delta in place of the human versions (other chains remain human); primary cynomolgus T cells carry the whole cynomolgus complex; also called Jurkat-mfCD3; Mf (Cyno) CD3
T2 sequence (Q95LI5 22-198, stated change not applied, chain 1 of 2): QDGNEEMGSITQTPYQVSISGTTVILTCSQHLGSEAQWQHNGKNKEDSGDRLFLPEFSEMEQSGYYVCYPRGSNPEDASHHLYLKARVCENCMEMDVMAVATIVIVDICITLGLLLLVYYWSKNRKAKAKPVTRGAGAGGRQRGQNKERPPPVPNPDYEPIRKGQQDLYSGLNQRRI
T2 sequence (Q95LI8 22-171, stated change not applied, chain 2 of 2): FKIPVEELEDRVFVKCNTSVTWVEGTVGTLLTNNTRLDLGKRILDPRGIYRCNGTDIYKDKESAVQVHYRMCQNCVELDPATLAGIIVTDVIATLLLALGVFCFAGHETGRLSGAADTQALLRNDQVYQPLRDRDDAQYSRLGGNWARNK
Protocol: Flow cytometric analysis was utilized to determine binding of BCMA×CD3 bispecific antibodies to human and cynomolgus CD3 (Jurkat cells, mfCD3 engineered Jurkat cells, primary human CD8+ and cynomolgus CD8+ T cells). Briefly, 1e05 cells/well were incubated in the presence of FACS wash with block (PBS+1% filtered FBS+5% mouse serum) with a serial dilution of BCMA×CD3 and control antibodies for 30 minutes on ice. After incubation, the cells were washed twice with cold FACS wash (PBS+1% filtered FBS) and bound antibody was detected by incubating with Alexa647-conjugated anti-human secondary antibody on ice for an additional 30 minutes. Wells containing no antibody or secondary only were used as a control. For the detection of monkey and human T cells, a cocktail of human and cynomolgus cross-reactive antibodies to CD4, CD8 and CD16 was added to the anti-human secondary. After incubation, cells were washed, re-suspended in 200 μL cold PBS containing 1% filtered FBS and analyzed by flow cytometry on a BD FACS Canto II. Cells were gated by FSC-H by FSC-A to select singlet events, followed by side and forward scatters to select for live events. For monkey T cells, additional gating on CD8+/CD16-cells was performed.
EC50 values for FACS binding were calculated using 4-parameter non-linear regression analysis in Prism software.

[2] = target: T1, human BCMA on the surface of cell lines …; test: flow cytometry, Alexa647 conjugate on Raji cells
Protocol: (§1) Cells were then washed and fixed for 25 mins at 4° C. using a 50% solution of BD Cytofix (BD, Cat #554655) diluted in PBS. […] After gating for live cells and single cells, the mean fluorescent intensity (MFI) was determined, and MFI values were plotted in Graphpad Prism using a four-parameter logistic equation over a 10-point response curve to calculate EC₅₀s. The zero condition for each dose-response curve is also included in the analysis as a continuation of the two-fold serial dilution and is represented as the lowest dose.

[3] = target: T1, human BCMA on the surface of cell lines …; test: flow cytometry, Alexa647 conjugate on Daudi cells
Protocol: as §1

| Binder | EC50 [1] [nM] | S/N (ratio of mAb25442D-A647 MFI to Isotype-A647 MFI) [2] | S/N (ratio of mAb25442D-A647 MFI to Isotype-A647 MFI) [3] |
| --- | --- | --- | --- |
| bsAb25441D bispecific antibody (REGN5458), anti-BCMA x anti-CD3 (bispecific antibody, human IgG4 S228P, kappa, Anti-BCMA arm from mAb21581, anti-CD3 arm and common light chain from mAb7221G; also called bsAb25441D9; mAb25441D) heavy 1: EVQLVESGGGLVQPGGSLRLSCAASGFTFSNFWMTWVRQAPGKGLEWVANMNQDGSEKYYVDSVKGRFTISRDNAKSSLYLQMNSLRAEDTAVYYCARDREYCISTSCYDDFDYWGQGTLVTVSSASTKGPSVFPLAPCSRSTSESTAALGCLVKDYFPEPVTVSWNSGALTSGVHTFPAVLQSSGLYSLSSVVTVPSSSLGTKTYTCNVDHKPSNTKVDKRVESKYGPPCPPCPAPPVAGPSVFLFPPKPKDTLMISRTPEVTCVVVDVSQEDPEVQFNWYVDGVEVHNAKTKPREEQFNSTYRVVSVLTVLHQDWLNGKEYKCKVSNKGLPSSIEKTISKAKGQPREPQVYTLPPSQEEMTKNQVSLTCLVKGFYPSDIAVEWESNGQPENNYKTTPPVLDSDGSFFLYSRLTVDKSRWQEGNVFSCSVMHEALHNHYTQKSLSLSLGK heavy 2: EVQLVESGGGLVQPGRSLRLSCAASGFTFDDYSMHWVRQAPGKGLEWVSGISWNSGSKGYADSVKGRFTISRDNAKNSLYLQMNSLRAEDTALYYCAKYGSGYGKFYHYGLDVWGQGTTVTVSSASTKGPSVFPLAPCSRSTSESTAALGCLVKDYFPEPVTVSWNSGALTSGVHTFPAVLQSSGLYSLSSVVTVPSSSLGTKTYTCNVDHKPSNTKVDKRVESKYGPPCPPCPAPPVAGPSVFLFPPKPKDTLMISRTPEVTCVVVDVSQEDPEVQFNWYVDGVEVHNAKTKPREEQFNSTYRVVSVLTVLHQDWLNGKEYKCKVSNKGLPSSIEKTISKAKGQPREPQVYTLPPSQEEMTKNQVSLTCLVKGFYPSDIAVEWESNGQPENNYKTTPPVLDSDGSFFLYSRLTVDKSRWQEGNVFSCSVMHEALHNRFTQKSLSLSPGK light: not shown | 15.1 | – | – |
| bsAb25442D bispecific antibody (REGN5459), anti-BCMA x anti-CD3 (bispecific antibody, human IgG4 S228P, kappa, Anti-BCMA arm from mAb21581, anti-CD3 arm and common light chain from mAb7221G20; also called mAb25442D; mAb25442D-A647) heavy 1: EVQLVESGGGLVQPGGSLRLSCAASGFTFSNFWMTWVRQAPGKGLEWVANMNQDGSEKYYVDSVKGRFTISRDNAKSSLYLQMNSLRAEDTAVYYCARDREYCISTSCYDDFDYWGQGTLVTVSSASTKGPSVFPLAPCSRSTSESTAALGCLVKDYFPEPVTVSWNSGALTSGVHTFPAVLQSSGLYSLSSVVTVPSSSLGTKTYTCNVDHKPSNTKVDKRVESKYGPPCPPCPAPPVAGPSVFLFPPKPKDTLMISRTPEVTCVVVDVSQEDPEVQFNWYVDGVEVHNAKTKPREEQFNSTYRVVSVLTVLHQDWLNGKEYKCKVSNKGLPSSIEKTISKAKGQPREPQVYTLPPSQEEMTKNQVSLTCLVKGFYPSDIAVEWESNGQPENNYKTTPPVLDSDGSFFLYSRLTVDKSRWQEGNVFSCSVMHEALHNHYTQKSLSLSLGK heavy 2: EVQLVESGGGLVQPGRSLRLSCAASGFTFDDYSMHWVRQAPGKGLEWVSGISWNSGSIGYADSVKGRFTISRDNAKNSLYLQMNSLRAEDTALYYCAKYGSGYGKFYYYGMDVWGQGTTVTVSSASTKGPSVFPLAPCSRSTSESTAALGCLVKDYFPEPVTVSWNSGALTSGVHTFPAVLQSSGLYSLSSVVTVPSSSLGTKTYTCNVDHKPSNTKVDKRVESKYGPPCPPCPAPPVAGPSVFLFPPKPKDTLMISRTPEVTCVVVDVSQEDPEVQFNWYVDGVEVHNAKTKPREEQFNSTYRVVSVLTVLHQDWLNGKEYKCKVSNKGLPSSIEKTISKAKGQPREPQVYTLPPSQEEMTKNQVSLTCLVKGFYPSDIAVEWESNGQPENNYKTTPPVLDSDGSFFLYSRLTVDKSRWQEGNVFSCSVMHEALHNRFTQKSLSLSPGK light: not shown | – | 2 | 3 |
